In test [1] the target is T1, recombinant human IL-13 (human, UniProt P35225 34-146).
T1 construct: also called biotinylated IL-13; rec human IL-13
Kind of test: Biacore; biotinylated IL-13 immobilized on a 69 RU streptavidin (SA) chip, antibody passed over the chip. As for the experimental part: (§1) Several measures were taken to confirm that the murine monoclonal antibody isolated in Example 1.1, i.e., mAb13.2, binds with high affinity and specificity to human IL-13. First, BIACORE™ analyses of three monoclonal antibodies to human IL-13 (mAb13.2, mAb13.4, and mAb13.9) were performed using a 69 RU streptavidin chip to which biotinylated IL-13 had been immobilized. […] Upon buffer exchange, dissociation was slow (FIG. 1). Second, BIACORE™ analysis of mAb13.2 was performed using a Biacore chip to which mAb13.2 had been immobilized. Different concentrations of IL-13 were passed over the chip. Again, rapid binding and slow dissociation was shown (FIG. 2). Third, analysis by ELISA determined that mAb13.2 bound to all forms of human IL-13 tested, including native IL-13 derived from cord blood T cells (FIG. 3). Plates were coated with anti-FLAG™ M2 antibody. The binding of FLAG™-human IL-13 was detected with biotinylated mAb13.2 and streptavidin-peroxidase. […] There was no detectable binding of mAb13.2 to recombinant murine IL-13 (FIG. 3). To confirm the results found by ELISA, the monoclonal antibody, mAb13.2, was coated onto a Biacore chip, and solutions containing recombinant human IL-13 or a polymorphic form of IL-13 (ARG variant), which is expressed at high frequency in patients suffering from asthma (Heinzmann et al. (2000) Hum. Mol. Genet. 9:594), were passed over the chip.

Test [2] deals with T1, recombinant human IL-13. Kind of test: Biacore; mAb13.2 immobilized on the chip, dose range of human IL-13 passed over. As for the experimental part:
as §1

Test [3] addresses T1, recombinant human IL-13. Kind of test: cell-based or functional assay.
Test [4] addresses T2, recombinant murine IL-13 (murine, UniProt P20109 19-131, limits assumed).
T2 sequence (looked up): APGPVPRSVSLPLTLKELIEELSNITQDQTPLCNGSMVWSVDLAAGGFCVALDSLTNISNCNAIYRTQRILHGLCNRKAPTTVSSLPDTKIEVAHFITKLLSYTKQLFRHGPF
Kind of test: competition ELISA; FLAG-human IL-13 captured on anti-FLAG M2 plates and detected with biotinylated mAb13.2 and streptavidin-peroxidase; soluble IL-13 added as competitor of FLAG-human IL-13. As for the experimental part:
as §1

The target in test [5] is T3, FLAG-human IL-13 (human, UniProt P35225 34-146).
T3 construct: Captured on ELISA plates by anti-FLAG M2 antibody; order of tag and IL-13 is not certain; also called IL-13-FLAG; human IL-13-FLAG; not shown: FLAG tag
T3 sequence (P35225 other isoform, or with tags, fused parts or gaps limits assumed): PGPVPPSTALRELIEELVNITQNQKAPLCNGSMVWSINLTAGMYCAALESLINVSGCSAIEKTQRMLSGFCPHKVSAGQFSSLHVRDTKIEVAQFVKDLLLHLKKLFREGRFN
Kind of test: competition ELISA; human IL-13-FLAG immobilized with anti-FLAG antibody, detected with biotinylated mAb13.2; unlabeled antibody varied. As for the experimental part:
The chimeric antibody, ch13.2, was tested for IL-13 binding. […] Chimeric antibody, ch13.2, was able to competitively bind to IL-13 similarly to mAb13.2 (FIG. 14A). In another test, human peripheral blood monocytes were treated overnight with IL-13 to induce CD23 expression in the presence of various concentrations of mouse mAb13.2 or ch13.2.

The target in test [6] is T3, FLAG-human IL-13. Kind of test: competition ELISA; IL-13-FLAG immobilized with anti-FLAG antibody, detected with biotinylated mAb13.2; unlabeled antibody varied.
Test [7] concerns the target T1, recombinant human IL-13. Kind of test: competition ELISA; competitor mAb13.2.
Test [8] concerns the target T4, IL-13 captured by IL-13Rα2 on the surface of A375 human melanoma cells (human, UniProt Q14627 27-380).
T4 construct: whole, on cells; Recombinant human IL-13 (3 ng/ml, or 10 ng/ml for ADCC) contacted to A375 cells; also called IL-13-loaded A375 cells; cells expressing IL-13Rα2
Kind of test: flow cytometry; A375 cells pre-incubated with 3 ng/ml hu IL13, stained with biotinylated h13.2v2. From the text: The cell signaling form of the IL-13 receptor, which includes the IL-13Rα1 and IL-4Rα polypeptides, is found on the surface of cell types that respond to the cytokine. IL-13Rα2 is not typically expressed on the surface of IL-13-responsive cells, but has been reported on tumors of the brain, head, and neck (Kawakami et al. (2003) Clin. Cancer Res. 9:6381-8; Mintz et al. (2002) Neoplasia 4:388-99; Liu et al. (2000) Cancer Immunol. Immunother. 49:319-24). IL-13Rα2 expression may also be induced on IFNγ-treated primary human monocytes (Daines et al. (2002) J. Biol. Chem. 277:10387-93), or TNFα- or IL-13-treated primary human fibroblasts (Yoshikawa et al. (2003) Biochem. Biophys. Res. Commun. 312:1248-55). This receptor is not competent to mediate signaling responses to IL-13 (Kawakami et al. (2001) Blood 97:2673-9), but instead appears to act as a decoy receptor, competing for productive IL-13 interactions with IL-13Rα1 (Feng et al. (1998) Lab. Invest. 78:591-602). IL-13Rα2 has a high affinity for IL-13 (Andrews et al. (2002) J. Biol. Chem. 277:46073-8), and appears to interact primarily with the C-terminal region of the cytokine (Madhankumar et al. (2002) J. Biol. Chem. 277:43194-205), which is not predicted to include the h13.2v2 binding site. Therefore, it was examined whether h13.2v2 could interact with IL-13 captured by IL-13Rα2 on the cell surface. […]

Test [9] has as its target T1, recombinant human IL-13. Kind of test: Biacore; h13.2v2 immobilized on the chip, dose range of human IL-13 passed over.

Residue numbers refer to the chain shown, from its start. Names and notes keep the numbering of the source.

T1 sequence (P35225 other isoform, or with tags, fused parts or gaps): as the sequence (P35225 other isoform, or with tags, fused parts or gaps limits assumed) above
T4 sequence (chain, as listed by the source, chain 1 of 2): as the sequence (P35225 other isoform, or with tags, fused parts or gaps limits assumed) above
T4 sequence (Q14627 27-380, chain 2 of 2): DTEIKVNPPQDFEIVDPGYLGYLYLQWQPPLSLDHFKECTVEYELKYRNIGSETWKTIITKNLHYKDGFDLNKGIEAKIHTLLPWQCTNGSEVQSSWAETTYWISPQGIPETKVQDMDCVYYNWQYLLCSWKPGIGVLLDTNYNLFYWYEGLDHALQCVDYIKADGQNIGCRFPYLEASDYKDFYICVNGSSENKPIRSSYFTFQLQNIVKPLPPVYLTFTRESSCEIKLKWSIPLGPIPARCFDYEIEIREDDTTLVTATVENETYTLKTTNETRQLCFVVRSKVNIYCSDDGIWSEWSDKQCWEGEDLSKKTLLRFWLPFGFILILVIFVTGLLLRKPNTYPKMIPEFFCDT

B1: murine monoclonal antibody mAb13.2 (antibody, V domains shown)
VH: EVKLVESGGGLVKPGGSLKLSCAASGFTFISYAMSWVRQTPEKRLEWVASISSGGNTYYPDSVKGRFTISRDNARNILYLQMSSLRSEDTAMYYCARLDGYYFGFAYWGQGTTVTVSS
VL: DIVLTQSPASLAVSLGQRATISCKASESVDNYGKSLMHWYQQKPGQSPKLLIYRASNLESGIPARFSGSGSRTDFTLTINPVEADDVATYYCQQSNEDPWTFGGGTKLEIK
notes: also called mouse mAb13.2; biotinylated mAb13.2
B1: in test [1], the Ka was 4e+10 M⁻¹, the Kd amounted to 0.025 nM, the koff amounted to 2.7e-06 s⁻¹ and the kon turned out to be 110000 M⁻¹ s⁻¹. Further, in test [2], the Ka was 2.1e+09 M⁻¹ and the dissociation constant (Kd) was determined as 0.47 nM. In test [3], the “IC50 (read off the curve), TF1 proliferation” value was roughly 0.3 nM. Further, in test [4], the binding result is “no binding (tested: about 3000 ng/ml)”. For the same molecule, the “IC50 (read off the curve)” value in [5] was roughly 1 nM.

B2: chimeric mAb13.2 antibody (ch13.2) (antibody, human IgG1, kappa, V domains shown)
VH: B1 VH
VL: DIVLTQSPASLAVSLGQRATISCKASESVDNYGKSLMHWYQQKPGQSPKLLIYRASNLESGIPARFSGSGSRTDFTLTINPVEADDVATYYCQQSNEDPWTFGGGTKLEIKR
Consider B2, for which the “IC50 (read off the curve)” value in test [5] was roughly 1 nM.

B3: partially humanized mAb13.2 (h13.2v1) (antibody, human IgG1, kappa, V domains shown)
VH: EVKLVESGGGLVQPGGSLRLSCAASGFTFISYAMSWVRQAPGKGLEWVASISSGGNTYYPDSVKGRFTISRDNAKNSLYLQMNSLRAEDTAVYYCARLDGYYFGFAYWGQGTLVTVSS
VL: DIQLTQSPSSLSASVGDRVTITCKASESVDNYGKSLMHWYQQKPGKAPKLLIYRASNLESGVPSRFSGSGSRTDFTLTISSLQPEDFATYYCQQSNEDPWTFGGGTKVEIKR
notes: Human IgG1 mutated (L234A/G237A), human kappa; also called hu13.2 V1
Turning to B3, the binding result in test [6] and in test [7] was “binds” in each case.

B4: fully humanized mAb13.2 (h13.2v3) (antibody, human IgG1, kappa, V domains shown)
VH: B3 VH with K3Q, Q13K, A49S, L113T
VL: B2 VL with L15P, S22T, S47P, I62V, R72G, D85N, V87T, T89N, L108V
With B4, the binding result in [7] is listed as “binds”.

B5: fully humanized mAb13.2 (h13.2v2) (antibody, human IgG1, kappa, V domains shown)
VH: B3 VH with K3Q
VL: B3 VL with L4M, R72G
notes: Human IgG1 mutated (L234A/G237A), human kappa; also called hu13.2 V2; biotinylated h13.2v2
As to B5, the binding result in test [8] is “binds”. In addition, in test [9], the Ka amounted to 9.3e+09 M⁻¹ and the dissociation constant Kd stood at 0.11 nM.

Values taken from patent US20060063228A1 (Pfizer, published 2006).
